Experiment [1] deals with T1, PDZD7 PDZ3 (a.a. 842-946) (mouse, UniProt E9Q9W7 842-946).
T1 construct: As used in ITC; also called WT PDZD7 PDZ3; source: E. coli BL21 (DE3), purified (nickel-NTA, SEC); not shown: Trx (from the vector pET.32M.3C)
T1 sequence (looked up): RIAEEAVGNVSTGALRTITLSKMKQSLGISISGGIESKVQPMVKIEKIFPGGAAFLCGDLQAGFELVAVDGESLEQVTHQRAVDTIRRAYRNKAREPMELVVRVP
Nature of the experiment: ITC; MicroCal iTC200, 25°C; ~500 μM protein in the syringe titrated into ~50 μM partner in the cell; one-site binding model. Conditions: both partners purified. On the technique in general: In ITC the heat of successive injections is recorded.

For a further experiment, the target named is T2, Trx-tagged PDZD7 PDZ3 (mouse, UniProt E9Q9W7 842-946).
T2 construct: As used in SEC-MALS, thioredoxin tag kept; monomer by SEC-MALS; also called Trx-PDZD7 PDZ3; source: E. coli BL21 (DE3), purified (nickel-NTA, SEC)
T2 sequence (looked up): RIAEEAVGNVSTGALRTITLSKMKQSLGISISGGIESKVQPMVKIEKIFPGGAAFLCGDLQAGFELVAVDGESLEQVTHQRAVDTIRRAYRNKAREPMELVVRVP
Nature of the experiment: SEC-MALS; Superose 12 10/300 GL column, miniDAWN and Optilab detectors; ~300 μl of 50 μM protein loaded; Trx-tagged proteins alone and mixed. Conditions: both partners purified.

These results are taken from publication PMC9317961, “Deafness-related protein PDZD7 forms complex with the C-terminal tail of FCHSD2” (Biochemical Journal, 2022).

B1: FCHSD2 tail (a.a. 729-740) (peptide, UniProt Q3USJ8 729-740, looked up)
chain: TEKMEDVEITLV
notes: As used in ITC; also called WT FCHSD2 tail; source: E. coli BL21 (DE3), purified (nickel-NTA, SEC)
As usually defined, the Kd is the free concentration of one partner at which half of the binding sites on the other are occupied at equilibrium, for simple one-to-one binding. In experiment [1], B1 came in with a Kd of about 1510 nM.

B2: Trx-tagged FCHSD2 tail (peptide, UniProt Q3USJ8 729-740, looked up)
chain: TEKMEDVEITLV
notes: FCHSD2, residues 729-740; As used in SEC-MALS, thioredoxin tag kept; monomer by SEC-MALS; also called Trx-FCHSD2 tail; source: E. coli BL21 (DE3), purified (nickel-NTA, SEC)
For orientation: stoichiometry N means the number of molecules, sites or subunits per partner or assembly. With B2, in the experiment with Trx-tagged PDZD7 PDZ3, the “stoichiometry N” value was found to be 1.
